From patent US6365711 (Harvard, dated 2002)

Molecular target: T1, Myc-tagged Δ473-534 (Xenopus, UniProt P70056 61-472)
T1 construct: also called deletion of an additional 33 C-terminal amino acids
T1 sequence: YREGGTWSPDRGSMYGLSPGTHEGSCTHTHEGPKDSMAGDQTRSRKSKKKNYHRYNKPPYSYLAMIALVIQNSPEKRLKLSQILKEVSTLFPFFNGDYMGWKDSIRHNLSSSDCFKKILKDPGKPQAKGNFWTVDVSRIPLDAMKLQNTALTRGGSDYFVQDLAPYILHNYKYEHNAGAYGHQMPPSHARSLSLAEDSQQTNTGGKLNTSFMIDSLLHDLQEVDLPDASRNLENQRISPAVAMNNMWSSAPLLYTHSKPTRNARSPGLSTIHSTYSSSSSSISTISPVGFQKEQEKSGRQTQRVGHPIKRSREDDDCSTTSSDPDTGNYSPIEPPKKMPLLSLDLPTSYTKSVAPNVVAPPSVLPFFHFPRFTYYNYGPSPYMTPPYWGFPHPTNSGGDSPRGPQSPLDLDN
Assay: FAST-1 deletion mutant co-expressed with tagged Smad in Xenopus embryos

B1: Myc-tagged Smad2 (other, not shown: small tags and cut ends)
chain: MSSILPFTPPVVKRLLGWKKSASGTTGAGGDEQNGQEEKWCEKAVKSLVKKLKKTGQLDELEKAITTQNCNTKCVTIPSTCSEIWGLSTANTIDQWDTTGLYSFSEQTRSLDGRLQVSHRKGLPHVIYCRLWRWPDLHSHHELKAIENCEYAFNLKKDEVCVNPYHYQRVETPVLPPVLVPRHTEILTELPPLDDYTHSIPENTNFPAGIEPQSNYIPETPPPGYISEDGETSDQQLNQSMDTGSPAELSPSTLSPVNHNLDLQPVTYSEPAFWCSIAYYELNQRVGETFHASQPSLTVDGFTDPSNSERFCLGLLSNVNRNATVEMTRRHIGRGVRLYYIGGEVFAECLSDSAIFVQSPNCNQRYGWHPATVCKIPPGCNLKIFNNQEFAALLAQSVNQGFEAVYQLTRMCTIRMSFVKGWGAEYRRQTVTSTPCWIELHLNGPLQWLDKVLTQMGSPSVRCSSMS
notes: Expressed from injected RNA in Xenopus embryos; also called Myc-Smad2
Q: Does B1 bind?
A: Result: no binding
